In PMC11754111 (2025):
Where no end group is shown, it is not given here.

T1: BPTF PHD finger
T1 chain: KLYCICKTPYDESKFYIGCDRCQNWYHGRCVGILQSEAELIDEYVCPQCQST

T2: JMJDA Tudor domain
T2 chain: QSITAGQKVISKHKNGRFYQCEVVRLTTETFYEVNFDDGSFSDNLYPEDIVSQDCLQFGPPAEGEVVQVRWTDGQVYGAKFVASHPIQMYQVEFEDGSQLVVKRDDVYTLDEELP

T3: JARID1A PHD finger
T3 chain: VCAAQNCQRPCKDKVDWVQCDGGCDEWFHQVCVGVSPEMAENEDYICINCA

T4: TAF3 PHD finger
T4 chain: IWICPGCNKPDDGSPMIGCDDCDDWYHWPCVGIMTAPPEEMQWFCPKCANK


Legend:
Experiment in all cases: ITC
BPTF PHD finger = biological target: T1, BPTF PHD finger
JMJDA Tudor domain = biological target: T2, JMJDA Tudor domain
JARID1A PHD finger = biological target: T3, JARID1A PHD finger
TAF3 PHD finger = biological target: T4, TAF3 PHD finger

Kd (BPTF PHD finger) [nM]	Kd (JMJDA Tudor domain) [nM]	Kd (JARID1A PHD finger) [nM]	Kd (TAF3 PHD finger) [nM]	Binder
			7940	ARTKQTARKSTGGKA (histaminylated glutamine at 5; C-terminal amide (general statement of the peptide synthesis)) [H3Q5his histone H3 tail peptide (ITC and crystal)]
2720	3610	2900		ARTKQTARKSTGGKA (trimethyl-lysine at 4; serotonylated glutamine at 5; C-terminal amide (general statement of the peptide synthesis)) [H3K4me3Q5ser histone H3 tail peptide (ITC)]
			3790	ARTKQTARKSTGGKA (serotonylated glutamine at 5; C-terminal amide (general statement of the peptide synthesis)) [H3Q5ser histone H3 tail peptide (ITC)]

Continued, binder first:

Binder	Kd (BPTF PHD finger) [nM]	Kd (JMJDA Tudor domain) [nM]	Kd (JARID1A PHD finger) [nM]	Kd (TAF3 PHD finger) [nM]
ARTKQTARKSTGGKA (trimethyl-lysine at 4; histaminylated glutamine at 5; C-terminal amide (general statement of the peptide synthesis)) [H3K4me3Q5his histone H3 tail peptide (ITC)]	1940	2300	1850	
ARTKQTARKSTGGKA-NH2 [unmodified histone H3 N-terminal tail peptide (ITC)]				21500
ARTK(Me3)QTARKSTGGKA-NH2 [H3K4me3 histone H3 tail peptide (ITC)]	1810		1680	
